The assay concerns the target Tat-PYC-Smad7 (recombinant Tat-tagged protein containing amino acids 203-426 of human Smad7) (human) (UniProt O15105). The experiment in a line: sandwich ELISA: rabbit anti-Smad7 (Novus NBP1-87728) as capture, MAB2029 as detection, Tat-PYC-Smad7 spiked into dog serum, OD 450. For orientation: In an ELISA, binding on a coated surface is turned into a signal by an enzyme label.
Sequence of UniProt O15105 (O15105 other isoform, or with tags, fused parts or gaps limits assumed): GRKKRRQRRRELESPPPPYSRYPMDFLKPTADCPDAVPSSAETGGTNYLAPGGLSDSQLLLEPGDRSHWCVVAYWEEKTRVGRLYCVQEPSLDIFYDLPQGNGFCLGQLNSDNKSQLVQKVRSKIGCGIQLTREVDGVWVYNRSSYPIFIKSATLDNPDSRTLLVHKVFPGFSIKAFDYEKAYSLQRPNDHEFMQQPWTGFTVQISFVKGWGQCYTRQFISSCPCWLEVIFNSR

Turning to “Mouse monoclonal antibody (R&D #MAB2029) that recognized the c-terminus of human SMAD7”, the lowest concentration detected amounted to 0.16 ng/mL.

These data come from US20240245751A1.
